Experimental data as given in the supplement of paper PMC9112550, “Optimization of the antimicrobial peptide Bac7 by deep mutational scanning” (BMC Biology, 2022).

System: Escherichia coli TOP10
Test: shrunken log2 fold change of peptide-encoding DNA abundance (4.5 h post-induction vs induction); higher = less antimicrobial activity (less host growth inhibition)
Conditions: time post-induction: 4.5 h; library: site-saturation at positions 5, 18, 19, 20
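Further: peptides expressed intracellularly from a pBAD plasmid library in pooled LB shake-flask culture, induced with 0.3% L-arabinose, DNA abundance read by NGS, three biological replicates, DESeq2 with apeglm shrinkage.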

| Sequence | shrunken log2 fold change |
| --- | --- |
| RRIRDRPPRLPRPRPRPQYNPRP | -0.446 |
| RRIRHRPPRLPRPRPRPYKWPRP | -0.0842 |
| RRIRNRPPRLPRPRPRPSPSPRP | -0.0323 |
| RRIRFRPPRLPRPRPRPGGCPRP | 0.432 |
| RRIRCRPPRLPRPRPRPMSKPRP | -0.5 |
| RRIRNRPPRLPRPRPRPQYLPRP | -0.123 |
| RRIRPRPPRLPRPRPRPKKMPRP | 2.39 |
| RRIRCRPPRLPRPRPRPPERPRP | 0.576 |
| RRIRRRPPRLPRPRPRPDYIPRP | -0.339 |
| RRIRYRPPRLPRPRPRPTHQPRP | -0.161 |
| RRIRIRPPRLPRPRPRPSTDPRP | -0.247 |
| RRIRMRPPRLPRPRPRPTEQPRP | -0.0171 |
| RRIRVRPPRLPRPRPRPFSTPRP | -0.496 |
| RRIRGRPPRLPRPRPRPPHSPRP | 0.568 |
| RRIRHRPPRLPRPRPRPNISPRP | -0.319 |
| RRIRIRPPRLPRPRPRPQEHPRP | -0.0111 |
| RRIRHRPPRLPRPRPRPCKDPRP | -0.332 |
| RRIRQRPPRLPRPRPRPRYVPRP | -0.215 |
| RRIRARPPRLPRPRPRPDFMPRP | 0.466 |
| RRIRPRPPRLPRPRPRPEGCPRP | 0.17 |
| RRIRSRPPRLPRPRPRPRIFPRP | 0.206 |
| RRIRDRPPRLPRPRPRPCWSPRP | -0.00281 |
| RRIRERPPRLPRPRPRPKPWPRP | 0.287 |

| Sequence | shrunken log2 fold change |
| --- | --- |
| RRIRDRPPRLPRPRPRPDCKPRP | 0.0499 |
| RRIRPRPPRLPRPRPRPPSNPRP | -0.0339 |
| RRIRMRPPRLPRPRPRPVMIPRP | 0.021 |
| RRIRIRPPRLPRPRPRPCLHPRP | -0.174 |
| RRIRNRPPRLPRPRPRPIDYPRP | -0.168 |
| RRIRLRPPRLPRPRPRPGANPRP | -0.146 |
| RRIRNRPPRLPRPRPRPQCEPRP | 0.0399 |
| RRIRLRPPRLPRPRPRPFNRPRP | -0.00257 |
| RRIRSRPPRLPRPRPRPCNIPRP | -0.178 |
| RRIRTRPPRLPRPRPRPIGLPRP | -0.115 |
| RRIRARPPRLPRPRPRPIFGPRP | 0.0662 |
| RRIRARPPRLPRPRPRPMPKPRP | 0.411 |
| RRIRYRPPRLPRPRPRPDGTPRP | 0.0319 |
| RRIRFRPPRLPRPRPRPGQVPRP | -0.131 |
| RRIRWRPPRLPRPRPRPWGQPRP | -0.0525 |
| RRIRVRPPRLPRPRPRPRWFPRP | -0.0978 |
| RRIRCRPPRLPRPRPRPLMGPRP | -0.214 |
| RRIRPRPPRLPRPRPRPSYRPRP | -0.342 |
| RRIRPRPPRLPRPRPRPDTQPRP | -0.371 |
| RRIRQRPPRLPRPRPRPCNWPRP | 0.0183 |
| RRIRQRPPRLPRPRPRPEALPRP | -0.0434 |
| RRIRIRPPRLPRPRPRPYLLPRP | -1.52 |
| RRIRTRPPRLPRPRPRPFIFPRP | -0.447 |

| Sequence | shrunken log2 fold change |
| --- | --- |
| RRIRERPPRLPRPRPRPLMAPRP | -0.169 |
| RRIRDRPPRLPRPRPRPTIYPRP | 0.0468 |
| RRIRGRPPRLPRPRPRPVIFPRP | 0.598 |
| RRIRQRPPRLPRPRPRPKTFPRP | -0.259 |
| RRIRCRPPRLPRPRPRPDPEPRP | -0.0407 |
| RRIRQRPPRLPRPRPRPDKKPRP | -0.0704 |
| RRIRLRPPRLPRPRPRPEDHPRP | -0.0495 |
| RRIRWRPPRLPRPRPRPLCLPRP | 0.949 |
| RRIRWRPPRLPRPRPRPDNYPRP | -0.00844 |
| RRIRMRPPRLPRPRPRPWVNPRP | 0.0668 |
| RRIRERPPRLPRPRPRPSYTPRP | -0.181 |
| RRIRPRPPRLPRPRPRPEGMPRP | 0.305 |
| RRIRNRPPRLPRPRPRPPTPPRP | 0.56 |
| RRIRWRPPRLPRPRPRPQGKPRP | 0.127 |
| RRIRERPPRLPRPRPRPKTQPRP | -0.102 |
| RRIRDRPPRLPRPRPRPIIVPRP | 0.0216 |
| RRIRSRPPRLPRPRPRPYLIPRP | -0.363 |
| RRIRHRPPRLPRPRPRPHNVPRP | -0.195 |
| RRIRSRPPRLPRPRPRPGDCPRP | 0.0299 |
| RRIRLRPPRLPRPRPRPFRGPRP | -0.0479 |
| RRIRWRPPRLPRPRPRPIGGPRP | -0.0334 |
| RRIRHRPPRLPRPRPRPLIRPRP | -0.217 |
| RRIRLRPPRLPRPRPRPNHWPRP | 0.0994 |

| Sequence | shrunken log2 fold change |
| --- | --- |
| RRIRKRPPRLPRPRPRPHSGPRP | 0.066 |
| RRIRGRPPRLPRPRPRPRKKPRP | 0.774 |
| RRIRPRPPRLPRPRPRPYNPPRP | -0.84 |
| RRIRVRPPRLPRPRPRPQAVPRP | -0.0188 |
| RRIRVRPPRLPRPRPRPIHCPRP | 0.0605 |
| RRIRWRPPRLPRPRPRPGNQPRP | -0.225 |
| RRIRERPPRLPRPRPRPLLTPRP | -0.116 |
| RRIRMRPPRLPRPRPRPEDSPRP | 0.0648 |
| RRIRTRPPRLPRPRPRPRMVPRP | 0.0186 |
| RRIRNRPPRLPRPRPRPPFKPRP | -0.325 |
| RRIRMRPPRLPRPRPRPSRDPRP | 0.257 |
| RRIRERPPRLPRPRPRPCCQPRP | -0.485 |
| RRIRGRPPRLPRPRPRPRRNPRP | 0.609 |
| RRIRTRPPRLPRPRPRPRKDPRP | -0.0522 |
| RRIRHRPPRLPRPRPRPPKEPRP | 0.121 |
| RRIRERPPRLPRPRPRPYCWPRP | -0.509 |
| RRIRCRPPRLPRPRPRPEEFPRP | 0.0238 |
| RRIRLRPPRLPRPRPRPKARPRP | -0.00543 |
| RRIRIRPPRLPRPRPRPHMSPRP | -0.109 |
| RRIRYRPPRLPRPRPRPFGTPRP | -0.158 |
| RRIRMRPPRLPRPRPRPPDEPRP | 2.96 |
| RRIRWRPPRLPRPRPRPKRYPRP | 0.0352 |
